PMC3068679

What was measured:
[1] = biological target: T1, MBP-Rv3124-His6 (MoaR1) (Mycobacterium tuberculosis (gDNA; strain H37Rv?)) (UniProt O05797); assay: EMSA
T1 sequence: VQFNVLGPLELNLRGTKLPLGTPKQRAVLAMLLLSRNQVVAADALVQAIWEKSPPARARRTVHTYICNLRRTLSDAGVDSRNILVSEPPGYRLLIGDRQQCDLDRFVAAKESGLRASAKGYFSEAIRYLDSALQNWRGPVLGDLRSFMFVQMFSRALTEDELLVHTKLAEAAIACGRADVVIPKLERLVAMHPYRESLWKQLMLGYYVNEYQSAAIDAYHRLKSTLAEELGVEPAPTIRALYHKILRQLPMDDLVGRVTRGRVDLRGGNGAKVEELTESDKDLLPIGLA

[2] = biological target: T1, MBP-Rv3124-His6 (MoaR1) (Mycobacterium tuberculosis (gDNA; strain H37Rv?)); assay: competition

In the case of “ATGGAGCTACCATATCAGGCAGCGTAGGCGTACTCATTTTCCTATCATCTTTTCGATCCTCCACTTTGGACGCAGTCGGTTAGAGCGCCTCAAGAGAGTTTCGTACAAGGGTTAACTAACAATCGTTACCGAAATGCATCGGCGCATCGTGGCGCAGCGCATGAGCCTGCGTTTATGGCGCGTTGTTAGGGCGGAATCCGACCACTCATGTGCGAGCTTTCGTT (double strand) [Rv3109pro (222 bp)]”, the binding [1] is reported as “binds” and the binding [2] is reported as “binds”.
